Test results published in the supplement of paper PMC10598134.
± gives the standard deviation.

Experiment: collision cross section of modified peptide (TIMS, N2, iRT-aligned); higher = larger / more extended gas-phase ion
Description: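 1/K0 was aligned run-wise to spiked iRT peptides and converted to CCS in N2 (Mason-Schamp). Values are the mean of 1-3 technical replicates for the most abundant feature at each charge state.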

[1] = charge state: 2, modification: Nitro (Y)
[2] = charge state: 2, modification: Phospho (Y)
[3] = charge state: 2, modification: Hydroxyproline
[4] = charge state: 3, modification: Hydroxyproline
[5] = charge state: 2, modification: Acetyl (K)
[6] = charge state: 3, modification: Acetyl (K)
[7] = charge state: 2, modification: Biotin
[8] = charge state: 3, modification: Biotin
[9] = charge state: 2, modification: Butyryl
[10] = charge state: 3, modification: Butyryl
[11] = charge state: 2, modification: Crotonyl
[12] = charge state: 3, modification: Crotonyl
[13] = charge state: 2, modification: Dimethyl (K)
[14] = charge state: 3, modification: Dimethyl (K)
[15] = charge state: 2, modification: Formyl
[16] = charge state: 3, modification: Formyl
[17] = charge state: 2, modification: Glutarylation
[18] = charge state: 3, modification: Glutarylation
[19] = charge state: 2, modification: GlyGly (K)
[20] = charge state: 3, modification: GlyGly (K)
[21] = charge state: 2, modification: Malonyl
[22] = charge state: 2, modification: Methyl (K)
[23] = charge state: 3, modification: Methyl (K)
[24] = charge state: 2, modification: Succinyl
[25] = charge state: 3, modification: Succinyl
[26] = charge state: 2, modification: Trimethyl (K)
[27] = charge state: 3, modification: Trimethyl (K)
[28] = charge state: 2, modification: hydroxyisobutyryl
[29] = charge state: 3, modification: hydroxyisobutyryl
[30] = charge state: 2, modification: HexNAc (ST)
[31] = charge state: 2, modification: Propionyl
[32] = charge state: 3, modification: HexNAc (ST)
[33] = charge state: 3, modification: Methyl (R)
[34] = charge state: 2, modification: Citrullination (R)

DYILEGEPGK [_DY(Nitro (Y))ILEGEPGK_]
collision cross section [1]: 355.27 ± 0.17 Å²

DYILEGEPGK [_DY(Phospho (Y))ILEGEPGK_]
collision cross section [2]: 357.17 ± 0.065 Å²

DYNVTANSK [_DY(Nitro (Y))NVTANSK_]
collision cross section [1]: 334.81 ± 0.16 Å²

DYNVTANSK [_DY(Phospho (Y))NVTANSK_]
collision cross section [2]: 337.74 ± 0.067 Å²

DYQPGITFIVVQK [_DYQP(Hydroxyproline)GITFIVVQK_]
collision cross section [3]: 402.94 ± 0.79 Å²
collision cross section [4]: 487.91 Å²

DYQPGITFIVVQKR [_DYQP(Hydroxyproline)GITFIVVQKR_]
collision cross section [3]: 449.25 ± 1.9 Å²
collision cross section [4]: 517.44 ± 1.2 Å²

DYSAPVNFISAGLKK [_DYSAPVNFISAGLK(Acetyl (K))K_]
collision cross section [5]: 433.43 ± 2.4 Å²
collision cross section [6]: 518.95 ± 1.1 Å²

DYSAPVNFISAGLKK [_DYSAPVNFISAGLK(Biotin)K_]
collision cross section [7]: 458.59 ± 0.47 Å²
collision cross section [8]: 548.62 Å²

DYSAPVNFISAGLKK [_DYSAPVNFISAGLK(Butyryl)K_]
collision cross section [9]: 437.47 ± 5.8 Å²
collision cross section [10]: 532.64 Å²

DYSAPVNFISAGLKK [_DYSAPVNFISAGLK(Crotonyl)K_]
collision cross section [11]: 438.67 ± 0.84 Å²
collision cross section [12]: 525.96 ± 1.3 Å²

DYSAPVNFISAGLKK [_DYSAPVNFISAGLK(Dimethyl (K))K_]
collision cross section [13]: 457.54 ± 1.7 Å²
collision cross section [14]: 517.49 ± 1.2 Å²

DYSAPVNFISAGLKK [_DYSAPVNFISAGLK(Formyl)K_]
collision cross section [15]: 433.25 ± 0.72 Å²
collision cross section [16]: 526.56 ± 0.68 Å²

DYSAPVNFISAGLKK [_DYSAPVNFISAGLK(Gluratylation)K_]
collision cross section [17]: 441.44 ± 0.95 Å²
collision cross section [18]: 535.69 ± 1.8 Å²

DYSAPVNFISAGLKK [_DYSAPVNFISAGLK(GlyGly (K))K_]
collision cross section [19]: 449.5 ± 1.6 Å²
collision cross section [20]: 532.12 ± 1.1 Å²

DYSAPVNFISAGLKK [_DYSAPVNFISAGLK(Malonyl)K_]
collision cross section [21]: 442.5 ± 1.7 Å²
collision cross section (charge state: 3, modification: Malonyl): 530.16 Å²

DYSAPVNFISAGLKK [_DYSAPVNFISAGLK(Methyl (K))K_]
collision cross section [22]: 451.15 ± 3.1 Å²
collision cross section [23]: 513.65 ± 3.5 Å²

DYSAPVNFISAGLKK [_DYSAPVNFISAGLK(Succinyl)K_]
collision cross section [24]: 438.82 ± 0.97 Å²
collision cross section [25]: 533.85 ± 1.6 Å²

DYSAPVNFISAGLKK [_DYSAPVNFISAGLK(Trimethyl (K))K_]
collision cross section [26]: 463.71 ± 1 Å²
collision cross section [27]: 523.24 ± 1.8 Å²

DYSAPVNFISAGLKK [_DYSAPVNFISAGLK(hydroxyisobutyryl)K_]
collision cross section [28]: 443.11 ± 0.56 Å²
collision cross section [29]: 536.52 ± 2.1 Å²

DYSQPTAAATVQDIK [_DYSQPTAAAT(HexNAc (ST))VQDIK_]
collision cross section [30]: 449.73 ± 0.61 Å²

DYSSGFGGKYGVQADR [_DYSSGFGGK(Acetyl (K))YGVQADR_]
collision cross section [5]: 430.77 ± 2.2 Å²

DYSSGFGGKYGVQADR [_DYSSGFGGK(Biotin)YGVQADR_]
collision cross section [7]: 450.72 ± 0.16 Å²
collision cross section [8]: 509.9 ± 0.34 Å²

DYSSGFGGKYGVQADR [_DYSSGFGGK(Butyryl)YGVQADR_]
collision cross section [9]: 438.71 ± 1.6 Å²

DYSSGFGGKYGVQADR [_DYSSGFGGK(Crotonyl)YGVQADR_]
collision cross section [11]: 437.04 ± 0.54 Å²

DYSSGFGGKYGVQADR [_DYSSGFGGK(Dimethyl (K))YGVQADR_]
collision cross section [13]: 435.9 ± 1.8 Å²
collision cross section [14]: 488.23 ± 0.74 Å²

DYSSGFGGKYGVQADR [_DYSSGFGGK(Formyl)YGVQADR_]
collision cross section [15]: 429.11 ± 0.79 Å²

DYSSGFGGKYGVQADR [_DYSSGFGGK(Gluratylation)YGVQADR_]
collision cross section [17]: 441.26 ± 0.95 Å²

DYSSGFGGKYGVQADR [_DYSSGFGGK(GlyGly (K))YGVQADR_]
collision cross section [19]: 440.03 ± 1.4 Å²
collision cross section [20]: 489.79 ± 1.3 Å²

DYSSGFGGKYGVQADR [_DYSSGFGGK(Malonyl)YGVQADR_]
collision cross section [21]: 435.88 ± 0.59 Å²

DYSSGFGGKYGVQADR [_DYSSGFGGK(Methyl (K))YGVQADR_]
collision cross section [22]: 432 Å²
collision cross section [23]: 489.11 ± 2.4 Å²

DYSSGFGGKYGVQADR [_DYSSGFGGK(Propionyl)YGVQADR_]
collision cross section [31]: 432.72 Å²

DYSSGFGGKYGVQADR [_DYSSGFGGK(Succinyl)YGVQADR_]
collision cross section [24]: 438.99 ± 0.83 Å²

DYSSGFGGKYGVQADR [_DYSSGFGGK(Trimethyl (K))YGVQADR_]
collision cross section [26]: 437.78 ± 0.016 Å²
collision cross section [27]: 486.86 ± 1.8 Å²

DYSSGFGGKYGVQADR [_DYSSGFGGK(hydroxyisobutyryl)YGVQADR_]
collision cross section [28]: 442.2 ± 0.79 Å²

DYSVTANSK [_DY(Nitro (Y))SVTANSK_]
collision cross section [1]: 331.98 ± 0.55 Å²

DYSVTANSK [_DY(Phospho (Y))SVTANSK_]
collision cross section [2]: 332.04 ± 0.69 Å²

DYVSQFEGSALGK [_DY(Nitro (Y))VSQFEGSALGK_]
collision cross section [1]: 387.16 ± 0.17 Å²

DYVSQFEGSALGK [_DY(Phospho (Y))VSQFEGSALGK_]
collision cross section [2]: 391.59 ± 0.64 Å²

EEKPAVTAAPK [_EEKPAVT(HexNAc (ST))AAPK_]
collision cross section [30]: 383.27 ± 0.13 Å²
collision cross section [32]: 484.12 ± 0.17 Å²

EGFSIPVSADGFK [_EGFSIPVS(HexNAc (ST))ADGFK_]
collision cross section [30]: 412.81 ± 0.62 Å²

ELANFDPSRPGPPSGR [_ELANFDPS(HexNAc (ST))RPGPPSGR_]
collision cross section [32]: 503.12 ± 0.18 Å²

EPFSGDHSADGFEVTSR [_EPFS(HexNAc (ST))GDHSADGFEVTSR_]
collision cross section [32]: 513.98 ± 1.8 Å²

ESISVSSEQLAQFR [_ES(HexNAc (ST))ISVSSEQLAQFR_]
collision cross section [30]: 438.25 Å²

ETTPSSLAVTQTMATK [_ETTPSSLAVTQT(HexNAc (ST))MATK_]
collision cross section [30]: 451.07 Å²

EVVKPVPITSPAVSK [_EVVKPVPIT(HexNAc (ST))SPAVSK_]
collision cross section [30]: 445.83 ± 0.56 Å²
collision cross section [32]: 512.07 ± 2.8 Å²

FDDTNPEKEEAK [_FDDTNPEK(Acetyl (K))EEAK_]
collision cross section [5]: 394.25 ± 1.3 Å²
collision cross section [6]: 440.01 ± 0.78 Å²

FDDTNPEKEEAK [_FDDTNPEK(Biotin)EEAK_]
collision cross section [7]: 416.55 ± 1.6 Å²
collision cross section [8]: 504.96 ± 0.34 Å²

FDDTNPEKEEAK [_FDDTNPEK(Butyryl)EEAK_]
collision cross section [9]: 399.47 ± 0.85 Å²
collision cross section [10]: 440.77 ± 2 Å²

FDDTNPEKEEAK [_FDDTNPEK(Crotonyl)EEAK_]
collision cross section [11]: 399.58 ± 0.79 Å²
collision cross section [12]: 439.29 Å²

FDDTNPEKEEAK [_FDDTNPEK(Dimethyl (K))EEAK_]
collision cross section [13]: 399.09 ± 0.55 Å²
collision cross section [14]: 487.33 ± 2.2 Å²

FDDTNPEKEEAK [_FDDTNPEK(Formyl)EEAK_]
collision cross section [15]: 390.88 ± 0.55 Å²
collision cross section [16]: 435.1 Å²

FDDTNPEKEEAK [_FDDTNPEK(Gluratylation)EEAK_]
collision cross section [17]: 403.46 ± 1.1 Å²
collision cross section [18]: 440.63 Å²

FDDTNPEKEEAK [_FDDTNPEK(GlyGly (K))EEAK_]
collision cross section [19]: 402.92 ± 5.6 Å²
collision cross section [20]: 486.07 ± 0.34 Å²

FDDTNPEKEEAK [_FDDTNPEK(Malonyl)EEAK_]
collision cross section [21]: 398.04 ± 0.6 Å²

FDDTNPEKEEAK [_FDDTNPEK(Methyl (K))EEAK_]
collision cross section [22]: 400.43 ± 1.8 Å²
collision cross section [23]: 498.56 ± 1.5 Å²

FDDTNPEKEEAK [_FDDTNPEK(Propionyl)EEAK_]
collision cross section [31]: 396.96 ± 0.65 Å²

FDDTNPEKEEAK [_FDDTNPEK(Succinyl)EEAK_]
collision cross section [24]: 397.2 ± 0.56 Å²
collision cross section [25]: 438.25 ± 3.4 Å²

FDDTNPEKEEAK [_FDDTNPEK(Trimethyl (K))EEAK_]
collision cross section [26]: 399.27 ± 1.6 Å²
collision cross section [27]: 487.6 ± 1.9 Å²

FDDTNPEKEEAK [_FDDTNPEK(hydroxyisobutyryl)EEAK_]
collision cross section [28]: 401.52 ± 0.54 Å²
collision cross section [29]: 443.87 ± 2.2 Å²

FEGAIYR [_FEGAIY(Nitro (Y))R_]
collision cross section [1]: 321.92 ± 0.71 Å²

FEGAIYR [_FEGAIY(Phospho (Y))R_]
collision cross section [2]: 333.04 ± 0.65 Å²

FGDSRGGGGNFGPGPGSNFR [_FGDSR(Citrullination (R))GGGGNFGPGPGSNFR_]
collision cross section (charge state: 3, modification: Citrullination (R)): 490.23 ± 0.77 Å²

FGDSRGGGGNFGPGPGSNFR [_FGDSR(Methyl (R))GGGGNFGPGPGSNFR_]
collision cross section [33]: 500.57 ± 1.4 Å²

FGRGTGLTQPSQR [_FGR(Citrullination (R))GTGLTQPSQR_]
collision cross section [34]: 390.81 ± 0.16 Å²

FGRGTGLTQPSQR [_FGR(Methyl (R))GTGLTQPSQR_]
collision cross section [33]: 470.4 ± 2.6 Å²

FGSRGGPGGGFR [_FGSR(Citrullination (R))GGPGGGFR_]
collision cross section [34]: 349.6 ± 0.64 Å²
